Results as given in publication PMC5983119.

How the values were obtained:
[1] = biological target: TDP-43 M323K (LCDmut) M323K (mouse) (UniProt Q921F2); experiment: EMSA; design: unit not given beside the values; details: 5% acrylamide gel, protein 0.25-2 ug with 32P RNA in unspecified binding buffer, salt, pH and temperature not given
TDP-43 WT (mouse) = TDP-43 WT (mouse) (UniProt Q921F2); experiment: EMSA; design: unit not given beside the values; details: 5% acrylamide gel, protein 0.25-2 ug with 32P RNA in unspecified binding buffer, salt, pH and temperature not given

Sequence: UGUGUGUGUGUG [(UG)6 RNA]
- Kd [1]: 32200
- Kd (TDP-43 WT (mouse)): 27600
